Bridges are numbered along the chain shown (N, C = ends). Where no end group is shown, it is not given here. Side-chain parts run from the residue outwards. [ ]: non-standard residue; d: D form. 1Nal = N[C@@H](Cc1cccc2ccccc12)C(=O)O
Experiments:
[1] = test system: TF-1 Cells; test: TF-1 proliferation assay (MTS, viable cell number), EPO-like activity; type: cell-based, human; settings: normalized plots
Protocol: An experiment was performed in a standard TF-1 cell assay as recommended by the European Pharmacopoe for the determination of EPO-like activity in vitro (please also see below). Basically, TF-1 cells (their proliferation being dependent from the presence of EPO-like activity) are cultured in the presence various concentrations of EPO or EPO-mimetic substances. The resulting cell numbers are quantified using colorimetric MTT-assay and photometric measurements.
In a TF-1 proliferation assay, TF-1 cells are seeded and cultured for several days in varying concentrations of EPO or EPO mimetic peptides in a multi-well plate.
For optimal results TF-1 cells should be cultured for two days in the absence of any cytokine (starved) before starting the assay. Three days after starting the assay, cell proliferation is measured indirectly by assaying the number of viable cells.
A tetrazolium reagent, called MTS, is added which is reduced to coloured formazan. This reaction depends on NADH and NADPH, in other words depends on mitochondrial activity. The amount of formazan is measured spectrophotometrically. Using a range of known cell numbers for calibration, it is possible to determine the absolute number of viable cells present under each condition. The principal design is also illustrated in FIG. 24.
The activity of a certain agent in this assay is determined by: • 1. assessing whether this agent causes an increase in the number of viable cells at a certain concentration, and • 2. at which concentration this agent exerts a half-maximum effect (determination of the EC50).

[2] = test system: TF-1 Cells; test: Proliferation assay with TF-1 cells by MTT (printed MU), peptide monomers; type: cell-based, human; settings: TF-1 proliferation, MTT-assay data, GraphPad dose-response
Protocol: Proliferation Assay with TF-1 Cells by MU
TF-1 Cells in logarithmic growth phase (˜2.10^5-1.10^6 cells/ml; RPMI medium; 20% fetal calf serum; supplemented with Penicillin, streptomycin, L-Glutamine; 0.5 ng/ml Interleukin 3) are washed (centrifuge 5 min. 1500 rpm and resuspended in RPMI complete without IL3 at 500.000 cells/ml) and precultured before start of the assay for 24 h without IL-3. At the next day the cells are seeded in 24- or 96-well plates usually using at least 6 concentrations and 4 wells per concentration containing at least 10.000 cells/well per agent to be tested. Each experiment includes controls comprising recombinant EPO as a positive control agent and wells without addition of cytokine as negative control agent. […]
At day 4, prior to start of the analysis, a dilution series of a known number of TF-1 cells is prepared in a number of wells (0/2500/5000/10000/20000/50000 cells/well in 100 μl medium). These wells are treated in the same way as the test wells and later provide a calibration curve from which cell numbers can be determined. […] 25 μl of 10% sodium dodecyl sulfate in water are added to each well prior to measurement E492 in an ELISA Reader.
Using graphical evaluations as shown in FIGS. 17 and 18 based on calculations of the dose-response relationship using the program GraphPad the following EC50 values were determined on the basis of MU-assay data: […]

[3] = target: T1, erythropoietin receptor (EPOR) on human TF-1 cells (human, UniProt P19235 25-508); test: cell-based or functional assay
T1 sequence (looked up): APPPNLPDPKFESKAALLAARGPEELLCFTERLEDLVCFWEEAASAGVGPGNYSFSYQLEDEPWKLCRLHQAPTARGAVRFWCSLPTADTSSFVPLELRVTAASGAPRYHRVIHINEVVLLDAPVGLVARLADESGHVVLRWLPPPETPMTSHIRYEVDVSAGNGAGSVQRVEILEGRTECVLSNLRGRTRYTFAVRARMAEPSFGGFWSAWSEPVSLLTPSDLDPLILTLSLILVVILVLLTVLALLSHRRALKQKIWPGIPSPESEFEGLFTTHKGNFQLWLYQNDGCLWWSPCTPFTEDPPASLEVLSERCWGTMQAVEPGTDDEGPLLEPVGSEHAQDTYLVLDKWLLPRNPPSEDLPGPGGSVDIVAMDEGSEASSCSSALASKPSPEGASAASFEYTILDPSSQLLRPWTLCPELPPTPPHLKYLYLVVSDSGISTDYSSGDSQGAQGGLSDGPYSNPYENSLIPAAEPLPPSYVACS

## AGEM40_HES: peptide (AGEM40) HESylated according to the supravalence principle (Ac-C([maleimide-HES 130 kD])GGTYSCHFGKLT[1Nal]VCKKQRGGGTYSCHFGKLT[1Nal]VCKKQRG-NH2; disulfide 7-16, 27-36 (inferred))
[1]
  efficacy and potency compared with other EPO mimetic peptides: highly effective and potent

## Ac-GGTYSCHFGKLT-Na1-VCKKQRG-Am (Ac-GGTYSCHFGKLT[1Nal]VCKKQRG-NH2; cysteine pairing not given here) [BB68]
[1]
  efficacy and potency compared with other EPO mimetic peptides: even more effective than EMP1 and 8849
[1]; listed as B868
  efficacy and potency compared with other EPO mimetic peptides: improved effect

## GGTYSCHFGGLTWVCKPQGG
[2]
  EC50 values of exemplary peptide monomers: no activity

## GGTYSCHFGKLTWVCKKQGG [SEQ ID NO 2, EPO mimetic peptide monomer]
[1]
  efficacy and potency compared with other EPO mimetic peptides: in the same range as EMP1

## GGTYSCHFAKLTWVCKKQGG (disulfide 6-15 (inferred)) [peptide GGTYSCHFAKLTWVCKKQGG]
[3]
  EC50, TF-1 cell proliferation (MTT assay): 5.04 µM

## GGTYSCHFGPLTWVCKKQGG (disulfide 6-15 (inferred)) [peptide GGTYSCHFGPLTWVCKKQGG]
[3]
  EC50, TF-1 cell proliferation (MTT assay): 2.52 µM

## Ac-GGTYSCHFGKLTWVCKKQGG (disulfide 6-15 (inferred)) [SEQ ID NO 2 peptide GGTYSCHFGKLTWVCKKQGG (BB49, monomer)]
[3]
  EC50, TF-1 cell proliferation (MTT assay): 3.28 µM

## GGTYSCHFGRLTWVCKKQGG (disulfide 6-15 (inferred)) [SEQ ID NO 6 peptide GGTYSCHFGRLTWVCKKQGG]
[3]
  EC50, TF-1 cell proliferation (MTT assay): 4.97 µM

## GGTYSCHFGRLTWVCKPQGG (disulfide 6-15 (inferred)) [SEQ ID NO 5 peptide GGTYSCHFGRLTWVCKPQGG]
[3]
  EC50, TF-1 cell proliferation (MTT assay): 5.16 µM

## GGTYSCHFGKLTWVCKPQGG (disulfide 6-15 (inferred)) [SEQ ID NO 4 peptide GGTYSCHFGKLTWVCKPQGG]
[3]
  EC50, TF-1 cell proliferation (MTT assay): 4.66 µM
